Patent US20250213686A1, “COMPOSITIONS AND METHODS FOR ENGINEERING TREG CELLS FOR TREATMENT OF DIABETES” (Seattle Children's Hospital (dba Seattle Children's …, priority 2021, published 2025)

B1: T1D2 TCR: TCR specific to IGRP 305-324, HLA-DR0401 restricted; TCRα SEQ ID NO: 9, TCRβ SEQ ID NO: 10 (protein)
alpha: MAMLLGASVLILWLQPDWVNSQQKNDDQQVKQNSPSLSVQEGRISILNCDYTNSMFDYFLWYKKYPAEGPTFLISISSIKDKNEDGRFTVFLNKSAKHLSLHIVPSQPGDSAVYFCAATRTSGTYKYIFGTGTRLKVLANIQNPDPAVYQLRDSKSSDKSVCLFTDFDSQTNVSQSKDSDVYITDKTVLDMRSMDFKSNSAVAWSNKSDFACANAFNNSIIPEDTFFPSPGKGSFGAFAGCFLASGMARFCPELWSMMSKTPLIGGLG
beta: MSISLLCCAAFPLLWAGPVNAGVTQTPKFRILKIGQSMTLQCTQDMNHNYMYWYRQDPGMGLKLIYYSVGAGITDKGEVPNGYNVSRSTTEDFPLRLELAAPSQTSVYFCASSPWGAGGTDTQYFGPGTRLTVLEDLKNVFPPEVAVFEPSEAEISHTQKATLVCLATGFYPDHVELSWWVNGKEVHSGVSTDPQPLKEQPALNDSRYCLSSRLRVSATFWQNPRNHFRCQVQFYGLSENDEWTQDRAKPVTQIVSAEAWGRADCGFTSESYQQGVLSATILYEILLGKATLYAVLVSALVLMAMVKRKDSRG
B2: T1D5-1 TCR: TCR specific to IGRP 305-324; TCRα SEQ ID NO: 29, TCRβ SEQ ID NO: 30 (protein)
alpha: MLLITSMLVLWMQLSQVNGQQVMQIPQYQHVQEGEDFTTYCNSSTTLSNIQWYKQRPGGHPVFLIQLVKSGEVKKQKRLTFQFGEAKKNSSLHITATQTTDVGTYFCAGQTGANNLFFGTGTRLTVIPYIQNPDPAVYQLRDSKSSDKSVCLFTDFDSQTNVSQSKDSDVYITDKTVLDMRSMDFKSNSAVAWSNKSDFACANAFNNSIIPEDTFFPSPGKGSFGAFAGCFLASGMARFCPELWSMMSKTPLIGGLG
beta: MGCRLLCCAVLCLLGAVPMETGVTQTPRHLVMGMTNKKSLKCEQHLGHNAMYWYKQSAKKPLELMFVYSLEERVENNSVPSRFSPECPNSSHLFLHLHTLQPEDSALYLCASSQEVGTVPNQPQHFGDGTRLSILEDLNKVFPPEVAVFEPSEAEISHTQKATLVCLATGFFPDHVELSWWVNGKEVHSGVSTDPQPLKEQPALNDSRYCLSSRLRVSATFWQNPRNHFRCQVQFYGLSENDEWTQDRAKPVTQIVSAEAWGRADCGFTSVSYQQGVLSATILYEILLGKATLYAVLVSALVLMAMVKRKDF
B3: T1D4 TCR: TCR specific to IGRP 241-260; TCRα SEQ ID NO: 19, TCRβ SEQ ID NO: 20 (protein)
alpha: MKSLRVLLVILWLQLSWVWSQKDQVFQPSTVASSEGAVVEIFCNHSVSNAYNFFWYLHFPGCAPRLLVKGSKPSQQGRYNMTYERFSSSLLILQVREADAAVYYCAVEDLNQAGTALIFGKGTTLSVSSNIQNPDPAVYQLRDSKSSDKSVCLFTDFDSQTNVSQSKDSDVYITDKTVLDMRSMDFKSNSAVAWSNKSDFACANAFNNSIIPEDTFFPSPGKGSFGAFAGCFLASGMARFCPELWSMMSKTPLIGGLG
beta: MGSRLLCWVLLCLLGAGPVKAGVTQTPRYLIKTRGQQVTLSCSPISGHRSVSWYQQTPGQGLQFLFEYFSETQRNKGNFPGRFSGRQFSNSRSEMNVSTLELGDSALYLCASSLALGQGNQQFFGPGTRLTVLEDLKNVFPPEVAVFEPSEAEISHTQKATLVCLATGFYPDHVELSWWVNGKEVHSGVSTDPQPLKEQPALNDSRYCLSSRLRVSATFWQNPRNHFRCQVQFYGLSENDEWTQDRAKPVTQIVSAEAWGRADCGFTSESYQQGVLSATILYEILLGKATLYAVLVSALVLMAMVKRKDSRG

Key:
Format in all cases: cell-based, human
[1] = tested on: cognate peptide (IGRP305-324, IGRP241-260, PPI76-90) and APC; assay: Peptide dose response (functional avidity) of TCR-transduced CD4+ T cells; conditions: for IGRP305-324 peptide concentration at which proliferation was reached: T1D5-1: similar to about 70% proliferation, T1D2: proliferation only at this concentration
Source text: FIG. 39A depicts a graph showing peptide dose response of T cells expressing T1D2, T1D4, or PPI76 TCR. CD4+ T cells transduced with T1D2, T1D4, or PPI76 TCR were co-cultured with APC in the presence of various concentration of their cognate peptide, IGRP305-324, IGRP241-260, PPI76-90, respectively for 4 days. Representative of three independent experiments.
FIG. 39C depicts a graph showing peptide dose response of T cells expressing T1D2, T1D5-1, or T1D5-2 TCR. CD4+ T cells transduced with T1D2, T1D5-1 or T1D5-2 TCR were co-cultured with APC in the presence of various concentration of their cognate peptide, IGRP305-324 for 4 days. Representative of three independent experiments. For dose response of T cells in A and C, T cells were labeled with CTV before the co-culture and cell proliferation was measured by CTV dilution.
Therefore, these unique features were used as way to begin to explore the impact of TCR affinity on islet-specific EngTregs function. […] We measured proliferation of polyclonal islet-specific Teff in the presence of islet-specific peptides and mDC and EngTregs with T1D2, T1D4 or PPI76. The data were normalized by suppressive activity obtained from suppression assay set up in parallel using CD3/CD28 beads (FIG. 39G). This latter assay provided a baseline control for EngTreg function, as this activation method is not impacted by TCR avidity. […] We then compared T1D2, T1D5-1 and T1D5-2, each of which recognize the same cognate peptide, IGRP305-324, in the context of HLA-DR0401 (Table E6-1) (31). […] Similarly, we measured suppressive capacity of EngTregs expressing T1D2, T1D5-1, or T1D5-2 on proliferation of polyclonal islet Teff in response to islet-specific peptides.

[2] = tested on: IGRP 305-324 or IGRP 241-260 peptide presented by HLA-DR4-expressing K562 cells; assay: Activation marker response of TCR-transduced CD4+ T cells to cognate peptide; conditions: for cognate peptide concentration required for maximal surface marker expression: relative to cells expressing T1D5-1; for upregulation of functional markers CD154, CD69 and CD137: stimulation with cognate peptide overnight, day 8
Protocol: (§1) FIGS. 29A-29E show editing of CD4+ T cells to express one of a panel of TCRs, and phenotypic characterization of edited cells.
FIGS. 30A-30B show dose response of T1D TCR-expressing CD4+ T cells to stimulation with IGRP 305-324 peptide. Cells were cultured in the presence of HLA-DR4-expressing K562 cells for a 20 hours, and analyzed by flow cytometry. […] Dashed lines=50% maximum response of each cell population (by donor).
CD4+ cells were thawed and stimulated with anti-CD3/CD28 Dynabeads in vitro (day 0). On day 1 post-thawing, cells were inoculated with a lentivirus encoding a T1D2, T1D5-1, or T1D4 TCR (day 1). On day 3 post-thaw, Dynabeads were removed. In parallel, artificial antigen-presenting cells were generated by transducing K562 cells with a lentivirus encoding an HLA-DR4 capable of presenting IGRP 305-324 or IGRP 241-260. On day 7 post-thaw, transduced CD4+ T cells were stimulated by addition of a given amount of cognate IGRP peptide in the presence of transduced K562 cells and culture overnight. On day 8 post-thaw, expression of activation-associated markers CD69, CD137, and CD154 (FIG. 29B).
In another experiment, CD4+ T cells transduced with a lentivirus encoding T1D2 TCR or control TCR (ZNT266) were cultured in a 3:1 ratio with K562 cells pulsed with IGRP 305-324 peptide at a range of concentrations, as described in the preceding paragraph. After 20 hours of co-culture, expression of surface markers CD154 and CD137 were analyzed by flow cytometry, to quantify sensitivity of T1D2 TCR-expressing cells to cognate peptide IGRP 305-324.

[3] = tested on: T1D2 TCR-expressing CD4+ T cells; assay: Alanine-substituted and potential off-target peptide stimulation of T1D2 TCR cells
Protocol: FIGS. 31A-31D show tolerance of T1D2 to substitutions in IGRP 305-324 peptide. FIGS. 31A and 31B show activation of T1D2 TCR-expressing CD4+ T cells, as measured by CD154 expression intensity (FIG. 31A) or % CD137-expressing cells (FIG. 31B) in the presence of antigen-presenting cells pulsed with one of a panel of alanine-substituted peptides. T cells were cultured for 20 hours in the presence of HLA-DR4-expressing K562 cells that had been pulsed with IGRP 305-324 peptide, or one of a panel of peptides having an alanine substitution at different positions, and analyzed by flow cytometry. FIGS. 31C and 31D show activation of T1D2 TCR-expressing CD4+ T cells, as measured by CD154 expression intensity (FIG. 31C) or % CD137-expressing cells (FIG. 31D) in the presence of antigen-presenting cells pulsed with one of a panel of potential off-target peptides derived from pathogens of human relevance. “Control” indicates CD4+ T cells expressing ZNT266 TCR. […]
After 20 hours of co-culture, expression of surface markers CD154 and CD137 (among CD3+CD4+ cells) were analyzed by flow cytometry, to quantify the potential for off-target activation of cells expressing T1D2 TCR. […]

[4] = tested on: IGRP 305-324 or IGRP 241-260 peptide presented by HLA-DR4-expressing K562 cells; assay: Cytokine production of TCR-transduced CD4+ T cells to cognate peptide; conditions: 5 hours stimulation with cognate peptide, day 14
Protocol: as §1
On day 14, transduced CD4+ T cells were stimulated for 5 hours with cognate IGRP peptide in the presence of transduced K562 cells, and the production of cytokines IFN-γ and TNF-α to evaluate T cell activation (FIG. 29D).

[5] = IGRP 305-324, 20 hours co-culture, 3:1 with K562 cells

| Molecule | IGRP305-324 peptide concentration at which proliferation was reached [1] | functional avidity ([1]; comparison of T1D2, T1D4 and PPI76 TCR) | functional avidity ([1]; comparison of T1D2, T1D5-1 and T1D5-2 (same cognate peptide IGRP305-324)) | EC50 of % CD137-expressing cells [2, 5] | EC50 of CD154 expression [2, 5] | sensitivity to stimulation with cognate peptide IGRP 305-324 ([2]; compared to cells expressing ZNT266 TCR) | cognate peptide concentration required for maximal surface marker expression [2] | upregulation of functional markers CD154, CD69 and CD137 [2] | recognition of predicted potential off-target peptides derived from human pathogens [3] | IFN-γ and TNF-α production [4] | cognate peptide concentration giving similar (more than 20%) proliferation [1] |
| --- | --- | --- | --- | --- | --- | --- | --- | --- | --- | --- | --- |
| B1 | 3 µg/mL | lowest functional avidity among the three TCRs | lowest functional avidity | 0.03 to 0.1 µg/mL | 0.1 to 0.3 µg/mL | substantially more sensitive | Lower concentrations of cognate peptide were required | dose-dependent manner | does not recognize any | dose-dependent manner |  |
| B2 | 1.0 µg/mL |  |  |  |  |  |  | dose-dependent manner |  | dose-dependent manner |  |
| B3 |  |  |  |  |  |  | Lower concentrations of cognate peptide were required | dose-dependent manner |  | dose-dependent manner | 0.1 µg/mL |
